Drawing on patent US11851478, this text covers IC50 FRNT* (ng/mL) against CHIKV for nine molecules.

To fix the notation:
B1: CHKV-32 (antibody, V domains shown)
VH: QVQLVQSGAEVKKPGASVKVSCKASGYTFTTFAMHWVRQAPGQGLECMGWINTANGYTKYSQKFQGRVTITSDTSASTASMELSSLTSKDTAVYYCARVQDFGHYEGGYGYWGQGTLVTVSS
VL: QSVLTQPPSVSGAPGQRVIISCTGSSSNIGAGYDVHWYQQLPGTAPKLLIYGNSYRPSGVPDRFSGSRSGTSASLAITGLQAEDEADYYCQSHDSSLNDFNVFGSGTKVTVL
B2: CHKV-48 (antibody, V domains shown)
VH: QVQLQESGPGLVKPSQTLSLTCAVSGGSISSGGYSWSWIRQPPGKGLEWIGYIYYSGSTYYNPSLKSRLTISMDTSKNHFSLKLSSVTAADTAVYYCATDYCSSTSCNTGAPVNWGQGTLVTVSS
VL: DIQLTQSPSFLSASVGDRVTITCRASQGISSYLAWYQQKPGKAPKLLINAASTLQSGVPSRFSGSGSGTEFTLTISSLQPEDFATYYCQQFNAYPYTFGQGTKLEIK
B3: CHKV-53 (antibody, V domains shown)
VH: QLQLQESGPGLVKPSETLSLTCTVSGGSISSTSHYWGWIRQPPGKGLEWIGNIYYSGSTYYKSSLKSRVAISVDTSKNQFSLKLSSVTAADTAVYFCARVVVGGYYDNRGYYRGPPTPLYYFDYWGQGTLVTVSS
VL: DIQMTQSPSSVSASVGDRVTISCRASPGISTWLAWYQQKPGKAPKLLIYAVSSLQSGVPSRFSGSGSGTDFTLTISSLQPEDFATYYCQQANSLSWTFGQGTKVEIK
B4: CHKV-35 (antibody, V domains shown)
VH: EVQLVESGGGLVPPGGSLRVSCAASGFTLRSYVMAWVRQAPGKGLEWVSGISGDGDHTYYADSVKGRFTISRDNSKNTLYLQMHSLRAEDTALYYCVKDWGIRGIYYPSGMDVWGQGTTVIVSS
VL: SLELAQPPSVSVSPGQTARITCSGDGLPQAYAYWYQKKPGQAPVPLIYKDTERPSGIPERFSGSSSGTTVTLTISGVQAEDEADYYCQSADSIGTNVIFGGGTKLTVL
B5: CHKV-29 (antibody, V domains shown)
VH: EVQLVESGGVVVQPGGSLRLSCAASGFNFDDYTMHWVRQAPGKGLEWVSLITWDGLSTYYADSMKGRFTISRDNSKDSLYLQMDSLRTEDTAFYYCVRDMGPGAVHFYFYGMDVWGQGTLVTVSS
VL: QSALTQPASVSGSPGQSITISCTGTSSDVGNYNLVSWYQQHPGKVPKLIIYEVSKRPSGISKRFSASKSGNTASLTISGLQAEDEADYYCCSYAGSSGVFGAGTKLTVL
B6: CHKV-50 (antibody, V domains shown)
VH: EVQLVESGGGLVQPGRSLRLSCAASGFTFDDYAMHWVRQAPGKGLEWVSGISWNSGFIGYADSVKGRFTISRDNAKNSLYLQMNSLRAEDTALYYCAKDLGRAYSSGWYLFDYWGQGTLVTVSS
VL: SYVLTQPPSVSVAPGKTARITCGGNNIGSKSVHWYQQLPGQAPVLVVYDDSDRPSGIPERFSGSNSGYTATLIISRVEAGDEADYYCQVWDSTSDHACVFGPGTKVTVL
B7: CHKV-27 (antibody, V domains shown)
VH: QVQLVQSGAEVKKPGASVKVSCKPSGYNFIDYAMHWVRQAPGQRLEWMGWINAANDNREYSQKFQGRVTLTRDTSATTAYMELSSLTFEDTAVYYCARDRGTMVRGVGGWFDPWGQGTLVTVSS
VL: SYVLTQPPSVSVAPGETARITCGGNNIGSKSVHWYQQKPVQAPVVVVYDDSDRPSGIPERFSGSNSGNTATLTISRVEAGDEADYYCQVWDSSSNHPVFGGGTKVAVL
B8: CHKV-31 (antibody, V domains shown)
VH: EVQLVESGGGLVQPGGSLRLSCAASGFTFSNYAMSWVRQAPGKGLEWVSGISGSGRTTYYTDSVKGRFNISRDNTKNTLFLQMNSLRAEDTAVYYCVKDRAGWFGNYFDYWGQGTLVTVSS
VL: DIQMTQSPSSLSASVGDRVTITCRASQGISNYLAWFQQKPGKAPKSLIYAASSLQSGVPSKFSGSRSGTNFTLTISSLQPEDFATYYCQQYNTYPPTFGQGTTVEIK
B9: CHKV-24 (antibody, V domains shown)
VH: QVQLVESGGGVVQPGKSLRLSCAASGFTFRNYGMHWVRQAPGKGLDWVALISYDGTHKYYKDSLKGRFTISRDNFQNTVDLQINSLRPDDTAVYYCAKELATSGVVEPLDSWGQGTLVTVSS
VL: EIVLTQSPGTLSLSPGERATLSCRASQSLVSSYFGWYQQKRGQSPRLLIYAASTRATGIPDRFSGSGSGTDFTLTISRLEPEDFAVYYCQQYGNTPFTFGGGTKVEIK

This test deals with Chikungunya virus (CHIKV), infectious virus of the focus reduction neutralization test (Chikungunya virus). The test is described as follows: cell-based or functional assay.
Take B1: the IC50 FRNT* (ng/mL) against CHIKV was 81 ng/mL. B2 registered an IC50 FRNT* (ng/mL) against CHIKV of 37 ng/mL. In turn, B3 yielded an IC50 FRNT* (ng/mL) against CHIKV of 319 ng/mL. On to B4, for which the IC50 FRNT* (ng/mL) against CHIKV worked out at 11 ng/mL.

B5 showed an IC50 FRNT* (ng/mL) against CHIKV of 86 ng/mL.

In turn, B6 displayed an IC50 FRNT* (ng/mL) against CHIKV of 2270 ng/mL.

In the case of B7, the IC50 FRNT* (ng/mL) against CHIKV stood at 17 ng/mL. Turning to B8, the IC50 FRNT* (ng/mL) against CHIKV worked out at 684 ng/mL. B9: the IC50 FRNT* (ng/mL) against CHIKV stood at 4 ng/mL.
